± gives the uncertainty stated by the source.
B1: Protein maelstrom homolog, residues 3 to 71; numbered along this chain, Q96JY0 (parent)
chain: NRKASRNAYYFFVQEKIPELRRRGLPVARVADAIPYCSSDWALLREEEKEKYAEMAREWRAAQGKDPGP
B2: Homeobox protein cut-like 1, residues 941 to 1008; numbered along this chain, P39880 (parent)
chain: QEVDTIELTRQVKEKLAKNGICQRIFGEKVLGLSQGSVSDMLSRPKPWSKLTQKGREPFIRMQLWLNG

Variants of: B1
Assay: abundance fitness (aPCA) (normalised: wild type 0, dead -1); higher = more abundant; growth selection in yeast, the domain comes from the species named
Settings: Homo sapiens

| Variant | abundance fitness |
| --- | --- |
| NRKKSRNAYYFFVQEKIPELRRRGLPVARVADAIPYCSSDWALLREEEKEKYAEMAREWRAAQGKDPGP [A4K] | -0.095 ± 0.13 |
| NRKLSRNAYYFFVQEKIPELRRRGLPVARVADAIPYCSSDWALLREEEKEKYAEMAREWRAAQGKDPGP [A4L] | 0.048 ± 0.08 |
| NRKSSRNAYYFFVQEKIPELRRRGLPVARVADAIPYCSSDWALLREEEKEKYAEMAREWRAAQGKDPGP [A4S] | 0 ± 0.092 |
| NRKPSRNAYYFFVQEKIPELRRRGLPVARVADAIPYCSSDWALLREEEKEKYAEMAREWRAAQGKDPGP [A4P] | -0.246 ± 0.072 |
| NRKDSRNAYYFFVQEKIPELRRRGLPVARVADAIPYCSSDWALLREEEKEKYAEMAREWRAAQGKDPGP [A4D] | -0.462 ± 0.23 |
| NRKGSRNAYYFFVQEKIPELRRRGLPVARVADAIPYCSSDWALLREEEKEKYAEMAREWRAAQGKDPGP [A4G] | 0.032 ± 0.056 |
| NRKESRNAYYFFVQEKIPELRRRGLPVARVADAIPYCSSDWALLREEEKEKYAEMAREWRAAQGKDPGP [A4E] | 0.159 ± 0.11 |
| NRKHSRNAYYFFVQEKIPELRRRGLPVARVADAIPYCSSDWALLREEEKEKYAEMAREWRAAQGKDPGP [A4H] | -1.04 ± 0.39 |
| NRKNSRNAYYFFVQEKIPELRRRGLPVARVADAIPYCSSDWALLREEEKEKYAEMAREWRAAQGKDPGP [A4N] | -0.371 ± 0.32 |
| NRKRSRNAYYFFVQEKIPELRRRGLPVARVADAIPYCSSDWALLREEEKEKYAEMAREWRAAQGKDPGP [A4R] | -0.09 ± 0.057 |
| NRKCSRNAYYFFVQEKIPELRRRGLPVARVADAIPYCSSDWALLREEEKEKYAEMAREWRAAQGKDPGP [A4C] | -0.395 ± 0.15 |
| NRKMSRNAYYFFVQEKIPELRRRGLPVARVADAIPYCSSDWALLREEEKEKYAEMAREWRAAQGKDPGP [A4M] | -0.011 ± 0.13 |
| NNKASRNAYYFFVQEKIPELRRRGLPVARVADAIPYCSSDWALLREEEKEKYAEMAREWRAAQGKDPGP [R2N] | -0.2 ± 0.12 |
| NIKASRNAYYFFVQEKIPELRRRGLPVARVADAIPYCSSDWALLREEEKEKYAEMAREWRAAQGKDPGP [R2I] | 0.162 ± 0.075 |
| NSKASRNAYYFFVQEKIPELRRRGLPVARVADAIPYCSSDWALLREEEKEKYAEMAREWRAAQGKDPGP [R2S] | 0.091 ± 0.032 |
| NVKASRNAYYFFVQEKIPELRRRGLPVARVADAIPYCSSDWALLREEEKEKYAEMAREWRAAQGKDPGP [R2V] | -0.288 ± 0.071 |

| Variant | abundance fitness |
| --- | --- |
| NAKASRNAYYFFVQEKIPELRRRGLPVARVADAIPYCSSDWALLREEEKEKYAEMAREWRAAQGKDPGP [R2A] | -0.407 ± 0.085 |
| NTKASRNAYYFFVQEKIPELRRRGLPVARVADAIPYCSSDWALLREEEKEKYAEMAREWRAAQGKDPGP [R2T] | 0.126 ± 0.066 |
| NMKASRNAYYFFVQEKIPELRRRGLPVARVADAIPYCSSDWALLREEEKEKYAEMAREWRAAQGKDPGP [R2M] | 0.093 ± 0.067 |
| NHKASRNAYYFFVQEKIPELRRRGLPVARVADAIPYCSSDWALLREEEKEKYAEMAREWRAAQGKDPGP [R2H] | 0.058 ± 0.1 |
| NPKASRNAYYFFVQEKIPELRRRGLPVARVADAIPYCSSDWALLREEEKEKYAEMAREWRAAQGKDPGP [R2P] | 0.06 ± 0.085 |
| NLKASRNAYYFFVQEKIPELRRRGLPVARVADAIPYCSSDWALLREEEKEKYAEMAREWRAAQGKDPGP [R2L] | -0.013 ± 0.045 |
| NEKASRNAYYFFVQEKIPELRRRGLPVARVADAIPYCSSDWALLREEEKEKYAEMAREWRAAQGKDPGP [R2E] | 0.124 ± 0.078 |
| NKKASRNAYYFFVQEKIPELRRRGLPVARVADAIPYCSSDWALLREEEKEKYAEMAREWRAAQGKDPGP [R2K] | 0.045 ± 0.09 |
| NFKASRNAYYFFVQEKIPELRRRGLPVARVADAIPYCSSDWALLREEEKEKYAEMAREWRAAQGKDPGP [R2F] | -0.095 ± 0.16 |
| NGKASRNAYYFFVQEKIPELRRRGLPVARVADAIPYCSSDWALLREEEKEKYAEMAREWRAAQGKDPGP [R2G] | 0.021 ± 0.054 |
| NYKASRNAYYFFVQEKIPELRRRGLPVARVADAIPYCSSDWALLREEEKEKYAEMAREWRAAQGKDPGP [R2Y] | 0.078 ± 0.12 |
| NDKASRNAYYFFVQEKIPELRRRGLPVARVADAIPYCSSDWALLREEEKEKYAEMAREWRAAQGKDPGP [R2D] | 0.122 ± 0.1 |
| NWKASRNAYYFFVQEKIPELRRRGLPVARVADAIPYCSSDWALLREEEKEKYAEMAREWRAAQGKDPGP [R2W] | -0.141 ± 0.058 |
| NCKASRNAYYFFVQEKIPELRRRGLPVARVADAIPYCSSDWALLREEEKEKYAEMAREWRAAQGKDPGP [R2C] | 0.123 ± 0.09 |
| NRNASRNAYYFFVQEKIPELRRRGLPVARVADAIPYCSSDWALLREEEKEKYAEMAREWRAAQGKDPGP [K3N] | -0.001 ± 0.19 |

Variants of: B2
Assay: as above
Settings: Homo sapiens

| Variant | abundance fitness |
| --- | --- |
| QEVDTIELTRQVKEKLAKNGICQRIFGEKVLGLSQGSVSDMLSRPKPWSKLTQKGREPFIRMQLWSNG [L66S] | -0.82 ± 0.072 |
| QEVDTIELTRQVKEKLAKNGICQRIFGEKVLGLSQGSVSDMLSRPKPWSKLTQKGREPFIRMQLWDNG [L66D] | -1.21 ± 0.33 |
| QEVDTIELTRQVKEKLAKNGICQRIFGEKVLGLSQGSVSDMLSRPKPWSKLTQKGREPFIRMQLWING [L66I] | -0.166 ± 0.083 |
| QEVDTIELTRQVKEKLAKNGICQRIFGEKVLGLSQGSVSDMLSRPKPWSKLTQKGREPFIRMQLWCNG [L66C] | -0.499 ± 0.13 |
| QEVDTIELTRQVKEKLAKNGICQRIFGEKVLGLSQGSVSDMLSRPKPWSKLTQKGREPFIRMQLWENG [L66E] | -0.909 ± 0.15 |
| QEVDTIELTRQVKEKLAKNGICQRIFGEKVLGLSQGSVSDMLSRPKPWSKLTQKGREPFIRMQLWMNG [L66M] | -0.244 ± 0.073 |
| QEVDTIELTRQVKEKLAKNGICQRIFGEKVLGLSQGSVSDMLSRPKPWSKLTQKGREPFIRMQLWYNG [L66Y] | -0.762 ± 0.091 |
| QEVDTIELTRQVKEKLAKNGICQRIFGEKVLGLSQGSVSDMLSRPKPWSKLTQKGREPFIRMQLWPNG [L66P] | -0.959 ± 0.091 |
